We go through 1 molecule from US20220251236A1 (Boehringer Ingelheim, published 2022).

Assay [1] has as its target T1, Cyno DLL3-His (cynomolgus monkey, UniProt Q9NYJ7 27-492 (human entry)).
T1 construct: also called cy DLL3; recombinant cyno DLL3-ECD
T1 chain: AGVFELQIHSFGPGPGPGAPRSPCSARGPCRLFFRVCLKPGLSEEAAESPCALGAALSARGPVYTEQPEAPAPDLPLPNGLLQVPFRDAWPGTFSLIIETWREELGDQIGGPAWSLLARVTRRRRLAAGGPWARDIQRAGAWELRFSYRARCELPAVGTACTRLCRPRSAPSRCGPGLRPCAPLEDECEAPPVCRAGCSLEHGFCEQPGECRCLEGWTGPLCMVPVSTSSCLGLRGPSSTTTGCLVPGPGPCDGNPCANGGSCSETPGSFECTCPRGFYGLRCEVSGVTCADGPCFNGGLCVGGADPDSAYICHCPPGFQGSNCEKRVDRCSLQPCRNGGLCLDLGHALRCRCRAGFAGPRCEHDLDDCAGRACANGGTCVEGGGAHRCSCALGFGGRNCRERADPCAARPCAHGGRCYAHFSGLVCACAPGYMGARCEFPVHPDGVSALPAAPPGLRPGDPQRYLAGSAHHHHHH
Nature of the assay: SPR; ratio of the KD values for human and cyno DLL3. The method, then: (§1) The binding affinity of purified DLL3/CD3 bispecific constructs for recombinant human and cyno DLL3-ECD and Fc-fusion proteins of human and cyno CD3 εγ subunits was determined by Surface Plasmon Resonance (SPR), using a ProteOn XPR36 instrument (Bio-Rad). The running buffer and all dilutions (except where stated) were done in PBS-T-EDTA. The GLM sensor chip (Bio-Rad) was normalized and pre-conditioned as per the manufacturer's recommendations. The sensor chip was activated with equal mixture of EDC/s-NHS in the horizontal direction for 300 sec at a flow rate of 30 ul/min and immobilized with protein A/G (20 ug/ml in 10 mM acetate pH 4.5) in the horizontal direction for 300 sec at a flowrate of 30 ul/min resulting in ˜5000 RU of protein A/G on the surface. The sensor chip was deactivated with 1M ethanolamine HCl in the horizontal direction for 300 sec at a flowrate of 30 μl/min.
(§2) For binding kinetic determination to DLL3, bispecific molecules were captured individually on the protein A/G surface vertically for 250 sec at a flowrate of 25 μl/min. The baseline was stabilized by injecting PBS-T-EDTA for 60 sec at a flowrate of 40 μl/min horizontally. The analyte (hu DLL3 or cy DLL3) was injected horizontally over the captured antibody for 600 sec at a flowrate of 40 μl/min and a dissociation for 2700 sec.
(§3) The inter spot (interactions with sensor surface) and blank (PBS-T-EDTA) were subtracted from the raw data.
For orientation: SPR reads the build-up and loss of mass on a sensor chip optically.

Assay [2] has as its target T2, trypsin inhibitor from glycine max soybean (Glycine max (soybean)).
T2 construct: also called Tryp
Nature of the assay: SPR (Biacore T200), trypsin inhibitor on CM5 chip, sample at 1 µM. From the text:
To prepare the surface for the non-specific binding experiment, chicken egg white lysozyme and trypsin inhibitor from glycine max soybean were coupled manually to a series S CM5 chip with the surface density of 3000-5000 RU using the amine coupling kit according to the manufacture instructions.

The target of assay [3] is T3, Human DLL3-His (human, UniProt Q9NYJ7 27-492).
T3 construct: also called huDLL3-His; hu DLL3
T3 sequence: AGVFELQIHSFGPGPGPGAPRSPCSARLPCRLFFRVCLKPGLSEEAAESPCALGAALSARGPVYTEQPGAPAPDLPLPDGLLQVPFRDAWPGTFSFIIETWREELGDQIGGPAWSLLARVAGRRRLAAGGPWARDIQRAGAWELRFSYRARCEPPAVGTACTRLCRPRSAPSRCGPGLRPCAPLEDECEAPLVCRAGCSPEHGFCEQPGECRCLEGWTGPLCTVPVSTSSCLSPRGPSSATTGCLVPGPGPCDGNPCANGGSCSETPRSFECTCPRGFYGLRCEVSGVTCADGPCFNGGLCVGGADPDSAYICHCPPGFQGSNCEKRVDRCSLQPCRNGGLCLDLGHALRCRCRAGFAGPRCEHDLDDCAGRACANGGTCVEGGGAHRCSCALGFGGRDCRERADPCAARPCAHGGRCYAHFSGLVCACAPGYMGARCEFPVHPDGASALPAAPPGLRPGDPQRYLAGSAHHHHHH
In words: SPR (ProteOn XPR36), bispecific captured on protein A/G, DLL3 as analyte, Example 4A. The method, then:
as §1, §2, §3

Assay [4] concerns the target T1, Cyno DLL3-His. The assay is described as above. The procedure: as §1, §2, §3
Assay [5] concerns the target T4, Human CD3 E+G HuFc-6xHis (human).
T4 construct: also called hu CD3εγ-Fc
In words: SPR (ProteOn XPR36), HuCD3E_HuCD3G-Fc amine-coupled, bispecific as analyte, Example 4B. The gist of the method:
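Human CD3ε/γ-Fc fusion is amine-coupled to the chip at pH 4.5. Anti-DLL3/CD3 bispecifics are injected as analyte in PBS-T-EDTA at 30 μl/min, with 600 s association and 1800 s dissociation. Binding kinetics are measured by SPR.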

For assay [6], the target named is T3, Human DLL3-His. In words: SPR (ProteOn XPR36), bispecific captured on protein A/G, hu DLL3 as analyte, Example 4B. The method, then:
The binding affinity of purified DLL3/CD3 bispecific constructs for recombinant human DLL3-ECD and Fc-fusion protein of human CD3 εγ subunits was determined by Surface Plasmon Resonance (SPR), using a ProteOn XPR36 instrument (Bio-Rad).
For binding kinetic determination to DLL3, anti-DLL3/CD3 molecules were captured individually on the protein A/G surface vertically for 200 sec at a flowrate of 30 μl/min. The baseline was stabilized by injecting PBS-T-EDTA for 60 sec at a flowrate of 30 μl/min horizontally. The analyte (hu DLL3) was injected horizontally over the captured antibody for 300 sec at a flowrate of 30 μl/min and a dissociation for 1800 sec.

Assay [7] has as its target T4, Human CD3 E+G HuFc-6xHis. In words: SPR (ProteOn XPR36), CD3εγ-Fc amine-coupled, bispecific as analyte, equilibrium fit, Example 4A. The procedure: as §1
For binding kinetic determination to CD3, hu CD3εγ-Fc and cy CD3εγ-Fc (dissolved in pH 4.5 acetate) was immobilized directly onto the sensor surface through amine coupling for 140 sec at a flowrate of 30 μl/min vertically. The baseline was stabilized by injecting PBS-T-EDTA for 60 sec at a flowrate of 40 μl/min horizontally. The analyte (the bispecific molecule) was injected horizontally over the captured CD3εγ-Fc construct for 600 sec at a flowrate of 40 μl/min and a dissociation for 600 sec.
as §3

T4 sequence (chain, as listed by the source limits assumed): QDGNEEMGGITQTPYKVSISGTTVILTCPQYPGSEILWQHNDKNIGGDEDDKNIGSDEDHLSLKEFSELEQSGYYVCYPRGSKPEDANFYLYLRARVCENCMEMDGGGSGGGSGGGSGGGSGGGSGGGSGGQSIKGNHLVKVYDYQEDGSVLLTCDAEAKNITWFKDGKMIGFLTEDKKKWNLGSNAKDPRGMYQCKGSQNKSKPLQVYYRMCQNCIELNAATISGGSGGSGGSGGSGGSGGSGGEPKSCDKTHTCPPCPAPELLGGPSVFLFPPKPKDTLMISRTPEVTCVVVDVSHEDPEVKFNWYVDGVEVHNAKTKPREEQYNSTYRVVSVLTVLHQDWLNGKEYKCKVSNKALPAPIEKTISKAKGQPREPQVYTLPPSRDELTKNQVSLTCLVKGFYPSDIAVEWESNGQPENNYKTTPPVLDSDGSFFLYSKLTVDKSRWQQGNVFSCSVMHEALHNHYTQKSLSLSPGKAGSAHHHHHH
T2 sequence (P01070 25-205): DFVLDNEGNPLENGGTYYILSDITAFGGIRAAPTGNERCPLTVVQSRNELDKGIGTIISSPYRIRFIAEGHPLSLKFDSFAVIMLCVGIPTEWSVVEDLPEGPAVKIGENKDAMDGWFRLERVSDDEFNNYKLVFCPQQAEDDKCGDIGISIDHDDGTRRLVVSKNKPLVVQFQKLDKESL

B1: DLL3#3/CD3#3 (bispecific antibody, human IgG1, kappa, lambda, L234A L235A)
chain 1: DIQMTQSPSAMSASVGDRVTITCRASQGISNYLVWFQQKPGKAPKRLIYAVSSLYSGVPSRFSGSGSGTEFTLTISSLQPEDFATYYCLQHDSYPYTFGQGTKLEIKRTVAAPSVFIFPPSDEQLKSGTASVVCLLNNFYPREAKVQWKVDNALQSGNSQESVTEQDSKDSTYSLSSTLTLSKADYEKHKVYACEVTHQGLSSPVTKSFNRGECGGGGSEGKSSGSGSESKSTEGKSSGSGSESKSTGGGGSQVQLVQSGAEVKKPGASVKVSCKASGYTFTSYYVHWVRQAPGQGLEWMVIINPGGGTTSYAQKFLGRVTMTRDTSTNTVYMELKSLRSEDTAVYYCARGEAVTGNYFYYGMDVWGQGTTVTVSSASTKGPSVFPLAPSSKSTSGGTAALGCLVKDYFPEPVTVSWNSGALTSGVHTFPAVLQSSGLYSLSSVVTVPSSSLGTQTYICNVNHKPSNTKVDKRVEPKSCDKTHTCPPCPAPEAAGGPSVFLFPPKPKDTLMISRTPEVTCVVVDVSHEDPEVKFNWYVDGVEVHNAKTKPREEQYNSTYRVVSVLTVLHQDWLNGKEYKCKVSNKALPAPIEKTISKAKGQPREPQVYTLPPSREEMTKNQVSLWCLVKGFYPSDIAVEWESNGQPENNYKTTPPVLDSDGSFFLYSKLTVDKSRWQQGNVFSCSVMHEALHNHYTQKSLSLSPG
chain 2: EAVVTQEPSLTVSPGGTVTLTCRSSTGAVTTSNYANWVQEKPGQLPRGLIGGTNKRAPWVPARFSGSLLGGKAALTLSGAQPEDEAEYFCALWYSNLWVFGGGTKLTVLGQPKAAPSVTLFPPSSEELQANKATLVCLISDFYPGAVKVAWKADGSPVNTGVETTTPSKQSNNKYAASSYLSLTPEQWKSHRSYSCQVTHEGSTVEKTVAPAECSGGGGSEGKSSGSGSESKSTEGKSSGSGSESKSTGGGGSEVQLVESGGGLVQPGGSLKLSCAASGFTFNTYAMNWVRQAPGKGLEWVARIRSKYANYATYYADSVKDRFTISRDDSKNTAYLQMNNLKTEDTAVYYCVRHGNFGNSYVSWFAYWGQGTLVTVSAASTKGPSVFPLAPSSKSTSGGTAALGCLVKDYFPEPVTVSWNSGALTSGVHTFPAVLQSSGLYSLSSVVTVPSSSLGTQTYICNVNHKPSNTKVDKRVEPKSCDKTHTCPPCPAPEAAGGPSVFLFPPKPKDTLMISRTPEVTCVVVDVSHEDPEVKFNWYVDGVEVHNAKTKPREEQYNSTYRVVSVLTVLHQDWLNGKEYKCKVSNKALPAPIEKTISKAKGQPREPQVYTLPPSREEMTKNQVSLSCAVKGFYPSDIAVEWESNGQPENNYKTTPPVLDSDGSFFLVSKLTVDKSRWQQGNVFSCSVMHEALHNRFTQKSLSLSPG
notes: Heterodimer of one DLL3 chain and one CD3 chain (scFab-Fc, knob-in-hole)
As for B1, in the assay with Cyno DLL3-His [1], the “Affinity gap KD hu/cyno DLL3” value came out at 1. For the same molecule, the “Non-specific binding (RU)” value in assay [2] is 28 RU. Further, the dissociation constant (Kd) was below 0.01 nM with Human DLL3-His [3]; below 0.01 nM in the assay with Cyno DLL3-His [4]; 4 nM in the assay with Human CD3 E+G HuFc-6xHis [5]; 0.116 nM in the assay with Human DLL3-His [6]; 68 nM with Human CD3 E+G HuFc-6xHis [7].

A word on the Kd: it is the equilibrium constant for the complex coming apart. Low readings indicate a tighter complex, high ones a looser complex.
